From PMC2879411 come the findings set out here.

pKd: −log10 of the molar value.

The target in test [1] is filamentous actin (F-actin), rabbit skeletal muscle (rabbit) (UniProt P68135).
For test [2], the target named is filamentous actin (F-actin), rabbit skeletal muscle (UniProt P68135). Description: inhibition of barbed end elongation from spectrin-actin seeds (pyrenyl-actin), fitted binding curve with 1:1 stoichiometry. To be noted: 2 µM G-actin (10% pyrenyl-labeled).
In test [3] the target is filamentous actin (F-actin), rabbit skeletal muscle (rabbit) (UniProt P68135). The source holds these as a separate data set.
The target is the same in test [4]. This is another data set of the same source.
In test [5] the target is GST-fused Eps8(648–821) wild type (mouse) (UniProt Q08509). Briefly: SEC + other: glycerol gradient sedimentation; Superdex200 10/30 and 10%–40% glycerol gradients (100 mM Tris-HCl pH 8, 500 mM NaCl, 1 mM dithiothreitol, 1 mM EDTA) of purified GST-Eps8(648–821) proteins.
The target in test [6] is AEDANS-labeled monomeric actin (rabbit) (UniProt P68135). Description: other fluorescence titration; competition: 1.5 µM AEDANS-labeled actin, increasing Thymosin β4 with 0, 15 or 30 µM Eps8(648–821) or 0, 10 or 15 µM H1–H2; 0.1 M KCl and 1 mM MgCl2 (high salt); apparent constants.

For “C-terminal fragment of Ce-EPS-8A (aa 714–917) fused to GST, wild type (domain or fragment)”, the Kcap of barbed end inhibition: elongation from spectrin-actin seeds with 2 µM G-actin (10% pyrenyl-labeled) in test [1] is 108 nM.
Turning to “C-terminal fragment of Ce-EPS-8A (aa 714–917) fused to GST, wild type Δbund”, the other: Kcap in test [2] is 205 nM.
Substance “C-terminal fragment of Ce-EPS-8A (aa 714–917) fused to GST, wild type Δcap” came in with an other: Kcap in test [2] of 980 nM.
The same measure, in the same setting: the figure for “C-terminal fragment of Ce-EPS-8A (aa 714–917) fused to GST, wild type ΔcapΔbund” is over 4000 nM.
On to “Eps8(648–821)-V689D-L693D (Eps8-Δcap) (from UniProt Q08509 648-821) (domain or fragment)”, for which, in test [3], the Kcap: barbed end elongation from spectrin-actin seeds was 700 nM.
On to “GST-fused Eps8(648–821) wild type (from UniProt Q08509 648-821) (domain or fragment)”, for which, in test [4], the Kcap: barbed end elongation, wild type of Figure 6C is 4 nM and the Kcap: barbed end elongation, wild type of Figure 6D stood at 16 nM. Besides, the stoichiometry N in test [5] stood at 2.
In test [4], “GST-fused Eps8-ΔcapΔbund, double H1 and Villin-like motif mutant of Eps8(648–821) (from UniProt Q08509 648-821) (domain or fragment)” displayed a Kcap: barbed end elongation of 4 µM.
Take Thymosin β4 (peptide): in test [6], the Kapp with 10 µM H1–H2 is 6 µM, the Kapp with 15 µM Eps8(648–821) was determined as 9 µM, the Kapp with 15 µM H1–H2 was determined as 11 µM and the Kapp with 30 µM Eps8(648–821) worked out at 14 µM. The pKd in test [6] is 5.52.
